Experiment [1] deals with core CoREST complex LSD1/HDAC1/CoREST1 (LHC) (UniProt O60341). Kind of experiment: enzyme inhibition (fluorogenic HDAC deacetylation assay); LHC (1 nM) pretreated 30 min on ice with inhibitor in 50 mM HEPES 7.5, 100 mM KCl, 100 uM InsP6, 0.2 mg/mL BSA; 50 uM fluorogenic peptide substrate, 37 C, 15 min; Ki = IC50/([S]/Km + 1), competitive model.
Experiment [2] shares this target. Kind of experiment: enzyme inhibition (fluorogenic HDAC deacetylation assay); Dixon plot of LHC inhibition by H3K14Hd-modified nucleosomes versus peptide substrate.

Data on five substances can be found in paper PMC6019071.

Take “H3K4me2K14Hd(1-34) synthetic H3 peptide (from UniProt P84233 2-35)”: the fold lower Ki than the corresponding Hd nucleosome in experiment [1] worked out at 30 fold.
Consider “H3K9Hd containing nucleosome (146 bp mononucleosome with semisynthetic H3K4me2K9Hd) (complex)”, for which the Ki in experiment [1] came out at 60 nM.
As for “semisynthetic histone H3 H3K4me2K14Hd (from UniProt P84233 2-136) (natural protein)”, the fold lower Ki than the corresponding Hd nucleosome in experiment [1] worked out at 30 fold.
On the same count and under the same terms, the figure for “H3K4me2K9Hd(1-34) synthetic H3 peptide (from UniProt P84233 2-35)” is 30 fold.
As to “H3K14Hd containing nucleosome (146 bp mononucleosome with semisynthetic H3K4me2K14Hd) (complex)”, the Ki was determined as 35 nM in experiment [2] and 40 nM in experiment [1].
